Assay results taken from patent publication US20060286142A1.

Molecular target: biotinylated alkaline phosphatase
Assay: SPR (Spreeta) refractive index response to 2 ug/ml b-AP on gold channels saturated with GBP-SA then GBP, after exposure to foulants (fibrinogen, human serum albumin, plasma, platelets)

How did the relative response to b-AP (% of GBP-SA control channel) turn out when “His6 tagged fusion protein streptavidin-GBP (from UniProt P22629 13-133)” was run?
The relative response to b-AP (% of GBP-SA control channel) was 80 to 100%.
